Results from patent US20260167699A1 (Chugai, published 2026).
Where a chain is given by its changes, count along the chain named.

Assays:
Assay in all cases: SPR (Biacore); binding relative to GpH7-A5/GpH7-B3/GpL16-k0 x100;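 note: antibodies captured on a chip surface, soluble FcγR flowed over in HBS-EP+ running buffer at 25 °C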
[1] = target: T1, FcγRIIb extracellular domain, C-terminal His tag (human, UniProt P31994 43-217)
T1 construct: extracellular domain; also called 2b
T1 sequence: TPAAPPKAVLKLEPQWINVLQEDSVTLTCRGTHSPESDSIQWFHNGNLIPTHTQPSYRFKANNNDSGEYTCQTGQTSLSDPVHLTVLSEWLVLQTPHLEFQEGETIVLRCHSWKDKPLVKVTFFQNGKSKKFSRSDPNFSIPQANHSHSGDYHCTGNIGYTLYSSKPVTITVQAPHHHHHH
Procedure: (§1) The antibody of interest was analyzed for its interaction with FcγR using a BiaCore™ T100, BiaCore™ A100, or BiaCore™ 4000 surface plasmon resonance system (GE Healthcare Japan Corp.). The running buffer used was HBS-EP+ (GE Healthcare Japan Corp.). The assay temperature was set to 25° C. The sensor chips used were: a chip prepared by immobilizing antigenic peptides onto Series S Sensor Chip CM5 (GE Healthcare Japan Corp.) by the amine coupling method; a chip prepared by immobilizing antigenic peptides biotinylated in advance onto Series S Sensor Chip SA (certified) (GE Healthcare Japan Corp.) through their interaction; a chip prepared by immobilizing protein L (ACTIGEN, BioVision, Inc.) onto Series S Sensor Chip CM5 (GE Healthcare Japan Corp.); and a chip prepared by immobilizing protein A/G (Thermo Fisher Scientific K.K.) onto Series S Sensor Chip CM5 (GE Healthcare Japan Corp.). The antibody of interest was captured onto any of these chips and allowed to interact with FcγR diluted with a running buffer. The antibody captured on the chip was washed off through the reaction of 10 mM glycine-HCl (pH 1.5) to regenerate the chip, which was repetitively used.

[2] = target: T2, FcγRIa extracellular domain, C-terminal His tag (human, UniProt P12314 16-292)
T2 construct: extracellular domain; also called 1a
T2 sequence (P12314 other isoform, or with tags, fused parts or gaps): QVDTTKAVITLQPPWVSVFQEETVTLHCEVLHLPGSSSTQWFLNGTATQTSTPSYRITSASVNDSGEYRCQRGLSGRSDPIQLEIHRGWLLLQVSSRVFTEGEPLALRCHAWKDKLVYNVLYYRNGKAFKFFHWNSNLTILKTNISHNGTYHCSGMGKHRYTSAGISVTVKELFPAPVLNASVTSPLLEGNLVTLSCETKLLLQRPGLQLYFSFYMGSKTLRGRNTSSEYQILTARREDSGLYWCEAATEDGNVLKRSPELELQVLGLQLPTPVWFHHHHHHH
Procedure: as §1

[3] = target: T3, FcγRIIa(H) extracellular domain, C-terminal His tag (human, UniProt P12318 34-217)
T3 construct: extracellular domain; Allotype H131; also called 2aH
T3 sequence: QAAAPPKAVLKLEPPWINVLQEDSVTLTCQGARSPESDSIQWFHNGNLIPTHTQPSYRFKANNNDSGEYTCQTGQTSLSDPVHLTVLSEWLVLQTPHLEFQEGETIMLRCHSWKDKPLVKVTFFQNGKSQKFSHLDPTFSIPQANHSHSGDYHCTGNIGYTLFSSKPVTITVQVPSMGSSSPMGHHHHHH
Procedure: as §1

[4] = target: T4, FcγRIIa(R) extracellular domain, C-terminal His tag (human, UniProt P12318 34-217)
T4 construct: extracellular domain; Allotype R131; also called 2aR
T4 sequence: T3 sequence with H134R
Procedure: as §1

[5] = target: T5, FcγRIIIa extracellular domain, C-terminal His tag (human, UniProt P08637 17-208)
T5 construct: extracellular domain; also called 3a
T5 sequence (P08637 other isoform, or with tags, fused parts or gaps): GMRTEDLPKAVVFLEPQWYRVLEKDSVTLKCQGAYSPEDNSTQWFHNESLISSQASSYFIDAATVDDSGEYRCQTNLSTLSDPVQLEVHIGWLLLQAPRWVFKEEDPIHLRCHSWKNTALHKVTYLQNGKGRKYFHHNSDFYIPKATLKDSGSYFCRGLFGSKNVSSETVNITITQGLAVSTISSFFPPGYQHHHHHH
Procedure: as §1

B1: GpH7-A5/GpH7-B3 variant A330_19Q/GpL16-k0 (antibody, human IgG1, kappa)
heavy 1: not shown
heavy 2: not shown
light: DIVMTQSPLSLPVTPGEPASISCQASESLVHSNRNTYLHWYLQKPGQSPQLLIYKVSNRFSGVPDRFSGSGSGTDFTLKISRVEAEDVGVYYCSQNTHVPPTFGQGTKVEIERTVAAPSVFIFPPSDEQLKSGTASVVCLLNNFYPREAKVQWKVDNALQSGNSQESVTEQDSKDSTYSLSSTLTLSKADYEKHKVYACEVTHQGLSSPVTKSFNRGEC
notes: He Ab: anti-glypican 3 IgG1 heterodimer, only the GpH7-B3 chain mutated; position in EU numbering; also called He Ab
He/Con 2b [1]: 103% | He/Con 1a [2]: 109% | He/Con 2aH [3]: 110% | He/Con 2aR [4]: 117% | He/Con 3a [5]: 86.3%

B2: GpH7-A5/GpH7-B3 variant K326_02A/GpL16-k0 (antibody, human IgG1, kappa)
heavy 1: not shown
heavy 2: not shown
light: B1 light
notes: as for B1
He/Con 2b [1]: 156% | He/Con 1a [2]: 107% | He/Con 2aH [3]: 110% | He/Con 2aR [4]: 125% | He/Con 3a [5]: 130%

B3: GpH7-A5/GpH7-B3 variant E333_18N/GpL16-k0 (antibody, human IgG1, kappa)
heavy 1: not shown
heavy 2: not shown
light: B1 light
notes: as for B1
He/Con 2b [1]: 98.2% | He/Con 1a [2]: 91.4% | He/Con 2aH [3]: 110% | He/Con 2aR [4]: 118% | He/Con 3a [5]: 76.2%

B4: GpH7-A5/GpH7-B3 variant I332_06M/GpL16-k0 (antibody, human IgG1, kappa)
heavy 1: not shown
heavy 2: not shown
light: B1 light
notes: as for B1
He/Con 2b [1]: 116% | He/Con 1a [2]: 105% | He/Con 2aH [3]: 114% | He/Con 2aR [4]: 108% | He/Con 3a [5]: 92.5%

B5: GpH7-A5/GpH7-B3 variant I332_16H/GpL16-k0 (antibody, human IgG1, kappa)
heavy 1: not shown
heavy 2: not shown
light: B1 light
notes: as for B1
He/Con 2b [1]: 103% | He/Con 1a [2]: 100% | He/Con 2aH [3]: 113% | He/Con 2aR [4]: 97.6% | He/Con 3a [5]: 89%

B6: GpH7-A5/GpH7-B3 variant E333_12R/GpL16-k0 (antibody, human IgG1, kappa)
heavy 1: not shown
heavy 2: not shown
light: B1 light
notes: as for B1
He/Con 2b [1]: 104% | He/Con 1a [2]: 96.7% | He/Con 2aH [3]: 110% | He/Con 2aR [4]: 127% | He/Con 3a [5]: 92.2%

B7: GpH7-A5/GpH7-B3 variant I332_19Q/GpL16-k0 (antibody, human IgG1, kappa)
heavy 1: not shown
heavy 2: not shown
light: B1 light
notes: as for B1
He/Con 2b [1]: 104% | He/Con 1a [2]: 103% | He/Con 2aH [3]: 112% | He/Con 2aR [4]: 95.1% | He/Con 3a [5]: 101%

B8: GpH7-A5/GpH7-B3 variant K326_03V/GpL16-k0 (antibody, human IgG1, kappa)
heavy 1: not shown
heavy 2: not shown
light: B1 light
notes: as for B1
He/Con 2b [1]: 196% | He/Con 1a [2]: 107% | He/Con 2aH [3]: 101% | He/Con 2aR [4]: 135% | He/Con 3a [5]: 135%

B9: GpH7-A5/GpH7-B3 variant I332_10E/GpL16-k0 (antibody, human IgG1, kappa)
heavy 1: not shown
heavy 2: not shown
light: B1 light
notes: as for B1
He/Con 2b [1]: 158% | He/Con 1a [2]: 109% | He/Con 2aH [3]: 112% | He/Con 2aR [4]: 113% | He/Con 3a [5]: 213%

B10: GpH7-A5/GpH7-B3 variant K326_01G/GpL16-k0 (antibody, human IgG1, kappa)
heavy 1: not shown
heavy 2: not shown
light: B1 light
notes: as for B1
He/Con 2b [1]: 119% | He/Con 1a [2]: 106% | He/Con 2aH [3]: 105% | He/Con 2aR [4]: 108% | He/Con 3a [5]: 114%

B11: GpH7-A5/GpH7-B3 variant I332_13S/GpL16-k0 (antibody, human IgG1, kappa)
heavy 1: not shown
heavy 2: not shown
light: B1 light
notes: as for B1
He/Con 2b [1]: 109% | He/Con 1a [2]: 97.3% | He/Con 2aH [3]: 113% | He/Con 2aR [4]: 97.9% | He/Con 3a [5]: 95.6%

B12: GpH7-A5/GpH7-B3 variant I332_03V/GpL16-k0 (antibody, human IgG1, kappa)
heavy 1: not shown
heavy 2: not shown
light: B1 light
notes: as for B1
He/Con 2b [1]: 89.5% | He/Con 1a [2]: 100% | He/Con 2aH [3]: 108% | He/Con 2aR [4]: 87% | He/Con 3a [5]: 85.2%

B13: GpH7-A5/GpH7-B3 variant K326_05P/GpL16-k0 (antibody, human IgG1, kappa)
heavy 1: not shown
heavy 2: not shown
light: B1 light
notes: as for B1
He/Con 2b [1]: 141% | He/Con 1a [2]: 106% | He/Con 2aH [3]: 103% | He/Con 2aR [4]: 118% | He/Con 3a [5]: 117%

B14: GpH7-A5/GpH7-B3 variant I332_14T/GpL16-k0 (antibody, human IgG1, kappa)
heavy 1: not shown
heavy 2: not shown
light: B1 light
notes: as for B1
He/Con 2b [1]: 118% | He/Con 1a [2]: 104% | He/Con 2aH [3]: 119% | He/Con 2aR [4]: 104% | He/Con 3a [5]: 110%

B15: GpH7-A5/GpH7-B3 variant K326_07I/GpL16-k0 (antibody, human IgG1, kappa)
heavy 1: not shown
heavy 2: not shown
light: B1 light
notes: as for B1
He/Con 2b [1]: 223% | He/Con 1a [2]: 106% | He/Con 2aH [3]: 104% | He/Con 2aR [4]: 141% | He/Con 3a [5]: 153%

B16: GpH7-A5/GpH7-B3 variant K326_06M/GpL16-k0 (antibody, human IgG1, kappa)
heavy 1: not shown
heavy 2: not shown
light: B1 light
notes: as for B1
He/Con 2b [1]: 185% | He/Con 1a [2]: 108% | He/Con 2aH [3]: 108% | He/Con 2aR [4]: 132% | He/Con 3a [5]: 127%

B17: GpH7-A5/GpH7-B3 variant A330_20W/GpL16-k0 (antibody, human IgG1, kappa)
heavy 1: not shown
heavy 2: not shown
light: B1 light
notes: as for B1
He/Con 2b [1]: 86% | He/Con 1a [2]: 111% | He/Con 2aH [3]: 93.8% | He/Con 2aR [4]: 97.6% | He/Con 3a [5]: 102%

B18: GpH7-A5/GpH7-B3 variant I332_02A/GpL16-k0 (antibody, human IgG1, kappa)
heavy 1: not shown
heavy 2: not shown
light: B1 light
notes: as for B1
He/Con 2b [1]: 114% | He/Con 1a [2]: 100% | He/Con 2aH [3]: 115% | He/Con 2aR [4]: 96.9% | He/Con 3a [5]: 103%

B19: GpH7-A5/GpH7-B3 variant K326_08L/GpL16-k0 (antibody, human IgG1, kappa)
heavy 1: not shown
heavy 2: not shown
light: B1 light
notes: as for B1
He/Con 2b [1]: 198% | He/Con 1a [2]: 105% | He/Con 2aH [3]: 96.5% | He/Con 2aR [4]: 131% | He/Con 3a [5]: 126%

B20: GpH7-A5/GpH7-B3 variant I332_04F/GpL16-k0 (antibody, human IgG1, kappa)
heavy 1: not shown
heavy 2: not shown
light: B1 light
notes: as for B1
He/Con 2b [1]: 115% | He/Con 1a [2]: 106% | He/Con 2aH [3]: 108% | He/Con 2aR [4]: 104% | He/Con 3a [5]: 89.3%

B21: GpH7-A5/GpH7-B3 variant K326_04F/GpL16-k0 (antibody, human IgG1, kappa)
heavy 1: not shown
heavy 2: not shown
light: B1 light
notes: as for B1
He/Con 2b [1]: 174% | He/Con 1a [2]: 107% | He/Con 2aH [3]: 101% | He/Con 2aR [4]: 129% | He/Con 3a [5]: 114%
